Data on 25 molecules can be found in patent US20200308290A1 (AbbVie / Abbott, published 2020).

Usually Kd stands for the concentration at which binding is half-saturated. As a reminder, the EC50 is the midpoint of the concentration-response curve. Usually koff stands for the rate constant with which the complex falls apart. What is called kon is the second-order rate constant of association.

To fix the notation:
T1: human CD25 (human, UniProt P01589 22-213, limits assumed)
T1 construct: Recombinant soluble human CD25, coated on plates (ELISA) or injected over captured antibody (BIAcore); also called hCD25; IL2-R alpha
T1 sequence (looked up): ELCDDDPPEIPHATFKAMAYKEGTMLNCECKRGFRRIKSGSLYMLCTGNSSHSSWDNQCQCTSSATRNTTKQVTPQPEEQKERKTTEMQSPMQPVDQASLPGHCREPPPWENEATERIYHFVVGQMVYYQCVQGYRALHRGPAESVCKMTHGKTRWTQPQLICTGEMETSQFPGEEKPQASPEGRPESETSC

T2: human CD25 (recombinant soluble) (human, UniProt P01589 22-240)
T2 construct: extracellular domain; bought protein; also called IL2-Rα; recombinant human IL2-Rα
T2 sequence (looked up): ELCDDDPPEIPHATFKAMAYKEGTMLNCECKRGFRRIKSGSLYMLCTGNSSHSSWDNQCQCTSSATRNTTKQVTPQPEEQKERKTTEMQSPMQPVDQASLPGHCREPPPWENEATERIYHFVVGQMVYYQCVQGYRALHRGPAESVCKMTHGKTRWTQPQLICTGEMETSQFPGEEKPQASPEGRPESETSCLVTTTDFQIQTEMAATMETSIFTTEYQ

T3: CD25 (recombinant) (human, UniProt P01589 22-213, limits assumed)
T3 construct: bought protein; also called IL2-R alpha; IL2-Rα
T3 sequence (looked up): T1 sequence (looked up)

T4: human CD25 on cells (human, UniProt P01589 22-272)
T4 sequence (looked up): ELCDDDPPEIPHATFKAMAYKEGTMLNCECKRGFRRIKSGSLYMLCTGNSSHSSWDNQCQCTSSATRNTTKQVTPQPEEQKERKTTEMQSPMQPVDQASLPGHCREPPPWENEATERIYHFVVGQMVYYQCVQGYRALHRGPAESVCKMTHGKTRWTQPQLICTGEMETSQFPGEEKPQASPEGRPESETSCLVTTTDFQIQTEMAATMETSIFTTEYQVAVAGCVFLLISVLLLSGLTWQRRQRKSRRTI

B1: Variant C38 (antibody, name in Kabat numbering, V domains shown)
VH: QVQLVQSGAEVKKPGSSVKVSCKASGYTFTSYRMHWVRQAPGQGLEWMGYISPRKGYTEYNQKFKDKATITADESTNTAYMELSSLRSEDTAVYYCARGGGVFDYWGQGTLVTVSS
VL: DIQMTQSPSTLSASVGDRVTITCSASSSISYMHWYQQKPGKAPKLLIYTTSNLASGVPARFSGSGSGTEFTLTISSLQPDDFATYYCHQRSTYPLTFGQGTKVEVK
notes: Isotype as printed: G2M3.QL
B2: Variant C35 (antibody, name in Kabat numbering, V domains shown)
VH: B1 VH with S52K, R54S, K55R
VL: B1 VL with N52E
notes: Isotype as printed: G2M3.QL
B3: Variant C28 (antibody, V domains shown)
VH: B1 VH with S52N, R54S, K55S
VL: B1 VL with S28K, N52D
notes: Isotype as printed: G2M3.QL
B4: Variant C40 (antibody, name in Kabat numbering, V domains shown)
VH: B1 VH
VL: B1 VL with N52E
notes: Isotype as printed: G2M3.QL
B5: Variant C34 (antibody, V domains shown)
VH: B1 VH with S52K, R54S, K55R
VL: B1 VL with S28K, N52D
notes: Isotype as printed: G2M3.QL
B6: Variant C39 (antibody, V domains shown)
VH: B1 VH
VL: B1 VL with S28K, N52D
B7: Variant C29 (antibody, name in Kabat numbering, V domains shown)
VH: B1 VH with S52N, R54S, K55S
VL: B1 VL with N52E
notes: Isotype as printed: G2M3.QL
B8: Variant C27 (antibody, name in Kabat numbering, V domains shown)
VH: B1 VH with S52N, R54S, K55S
VL: B1 VL
notes: Isotype as printed: G2M3.QL
B9: NuhuTacVH with daclizumabVL (antibody, V domains shown)
VH: B1 VH with Q1E, S16A, M48I, S52N, R54S, K55T, I70M, E74K, T76I, N77S
VL: B1 VL
notes: combination antibody
B10: daclizumab VH and NuhuTacVL (antibody, V domains shown)
VH: B1 VH with M48I, S52N, R54S, K55T
VL: EIVLTQSPATLSLSPGERATLTCSASSSISYMHWFQQKPGQAPRLLIYTTSNLASGIPARFSGSGSGTDYTLTISSLEPEDFAVYYCHQRSTYPLTFGQGTKVEIK
notes: combination antibody
B11: RKGFN (antibody, IgG1, name in Kabat numbering, V domains shown)
VH: B1 VH with M48I, S52R, R54K, K55G, Y57F, E59N
VL: B1 VL
notes: soluble IgG1 from the VH library; Kabat numbers; also called VH variant RKGFN
B12: RRKFE (antibody, IgG1, name in Kabat numbering, V domains shown)
VH: B1 VH with M48I, S52R, Y57F
VL: B1 VL
notes: soluble IgG1 from the VH library; Kabat numbers; also called VH variant RRKFE
B13: RKGFE (antibody, IgG1, name in Kabat numbering, V domains shown)
VH: B1 VH with M48I, S52R, R54K, K55G, Y57F
VL: B1 VL
notes: soluble IgG1 from the VH library; Kabat numbers; also called VH variant RKGFE
B14: SNKYL (antibody, IgG1, name in Kabat numbering, V domains shown)
VH: B1 VH with M48I, R54N, E59L
VL: B1 VL
notes: soluble IgG1 from the VH library; Kabat numbers; also called VH variant SNKYL
B15: RRGFE (antibody, IgG1, name in Kabat numbering, V domains shown)
VH: B1 VH with M48I, S52R, K55G, Y57F
VL: B1 VL
notes: soluble IgG1 from the VH library; Kabat numbers; also called VH variant RRGFE
B16: QRKFH (antibody, IgG1, name in Kabat numbering, V domains shown)
VH: B1 VH with M48I, S52Q, Y57F, E59H
VL: B1 VL
notes: soluble IgG1 from the VH library; Kabat numbers; also called VH variant QRKFH
B17: daclizumab variant S78 (antibody, IgG1, name in Kabat numbering, V domains shown)
VH: B1 VH with M48V, S52N, R54S, K55T
VL: B1 VL
notes: IgG1; Kabat positions; also called I48V; DAC I48V
B18: daclizumab variant S76 (antibody, IgG1, name in Kabat numbering, V domains shown)
VH: B1 VH with M48L, S52N, R54S, K55T
VL: B1 VL
notes: IgG1; Kabat positions; also called I48L; DAC I48L
B19: Variant C41 (antibody, name in Kabat numbering, V domains shown)
VH: B1 VH with K55S
VL: B1 VL
notes: Isotype as printed: G2M3.QL
B20: Variant C37 (antibody, name in Kabat numbering, V domains shown)
VH: B1 VH with S52K, R54S, K55S
VL: B1 VL with N52E
notes: Isotype as printed: G2M3.QL
B21: Variant C43 (antibody, name in Kabat numbering, V domains shown)
VH: B1 VH with K55S
VL: B1 VL with N52E
notes: Isotype as printed: G2M3.QL
B22: Variant C12 (antibody, name in Kabat numbering, V domains shown)
VH: B1 VH with M48I, K55R, E59Q
VL: B1 VL
notes: Isotype as printed: G1 fa
B23: Variant C11 (antibody, name in Kabat numbering, V domains shown)
VH: B1 VH with M48I, R54K, K55R, E59Q
VL: B1 VL
notes: Isotype as printed: G1 fa
B24: Variant C9 (antibody, name in Kabat numbering, V domains shown)
VH: B1 VH with M48I, S52R, R54K, K55R, E59Q
VL: B1 VL
notes: Isotype as printed: G1 fa
B25: Variant C10 (antibody, name in Kabat numbering, V domains shown)
VH: B1 VH with M48I, S52R, K55R, E59Q
VL: B1 VL
notes: Isotype as printed: G1 fa

Positions count from the first letter of the chain named. Names may count otherwise.

In the first assay the target is T1, human CD25. The experiment in a line: SPR (BIAcore).
B1 showed a Kd of 9.5 pM.

Turning to B2, the Kd worked out at 34 pM.

In turn, B3 showed a Kd of 54 pM.

As to B4, binding was put at a Kd of 12 pM.

B5 registered a Kd of 21 pM.

The target in the next assay is T5, cynomolgous monkey CD25 (cynomolgous monkey).
T5 construct: also called cmCD25; cm
The experiment in a line: SPR (BIAcore), cynomolgous CD25. On the technique in general: SPR reads the build-up and loss of mass on a sensor chip optically.
In turn, B6 had a Kd of 31 pM.

In the case of B7, the Kd was 98 pM.

In turn, B1 returned a Kd of 100 pM.

For B2, the Kd was found to be 188 pM.

The molecule B8 showed a Kd of 263 pM.

In turn, B3 came in with a Kd of 49 pM.

Consider B4, for which the Kd worked out at 74 pM.

Consider B5, for which binding was put at a Kd of 88 pM.

A further assay has as its target T2, human CD25 (recombinant soluble). The experiment in a line: competition ELISA on plate-coated CD25: competitor antibody titrated against biotinylated daclizumab, OD415. (An ELISA detects its analyte on a solid surface through an enzyme-linked reagent.)
For B9, the EC50 is 0.47 µg/mL.

With B10, the concentration giving a half-maximal response (EC50) is 1.18 µg/mL.

The target is the same in the next assay. The experiment in a line: competitive ELISA with biotinylated daclizumab on CD25.
Procedure: Wells of 96-well ELISA plates (Nunc-Immuno MaxiSorp plates, Nalge Nunc, Rochester, N.Y.) were coated with 100 μL of 0.2 μg/mL CD25 (Pepro Tech Inc., Rocky Hill, N.J.) in 0.2 M sodium carbonate-bicarbonate buffer (pH 9.4, Pierce, Rockford, Ill.) overnight at 4° C. After washing with Wash Buffer, wells were blocked with 200 μL of Superblock Blocking Buffer (Pierce, Rockford, Ill.) for 30 min and then washed. […] The plate was then washed with washing buffer three times. After washing, 100 μL of 1 μg/mL HRP-conjugated Streptavidin (Pierce) diluted in ELISA buffer was added to each well. After 30 minutes of incubation at room temperature, plates were washed and bound antibodies were detected by addition of ABTS substrate (Kirkegaard & Perry Laboratories, Gaithersburg, Md.). […] PRISM (GraphPad, San Diego) and reported as IC₅₀ wild type/IC₅₀ mutant (fold improvement over wild type control).
Consider B11, for which the “fold affinity over the parental antibody” value is ~10 fold.

Consider B12, for which the “fold affinity over the parental antibody” value is ~10 fold.

Take B13: the “fold affinity over the parental antibody” value is ~10 fold.

Consider B14, for which the “fold affinity over the parental antibody” value is ~10 fold.

With B15, the “fold affinity over the parental antibody” value was ~10 fold.

As for B16, the “fold affinity over the parental antibody” value was ~10 fold.

Another assay addresses T3, CD25 (recombinant). In words: SPR (BIAcore).
As to B17, the “Fold improvement (KD)” value is 1 fold over wild type, the Kd worked out at 493 pM, the koff is 0.000183 s⁻¹ and the kon was determined as 371000 M⁻¹ s⁻¹.

Regarding B18, the “Fold improvement (KD)” value was 0.9 fold over wild type, the Kd is 597 pM, the koff stood at 0.000222 s⁻¹ and the kon came out at 372000 M⁻¹ s⁻¹.

In the next assay the target is T1, human CD25. The experiment in a line: competition ELISA vs biotinylated daclizumab, fold over wild type.
With B19, the ELISA fold improvement stood at 6.1 fold.

The molecule B1 returned an ELISA fold improvement of 8.2 fold.

In the case of B2, the ELISA fold improvement worked out at 7 fold.

As for B3, the ELISA fold improvement stood at 1.6 fold.

With B20, the ELISA fold improvement amounted to 4.1 fold.

On to B4, for which the ELISA fold improvement came out at 6.8 fold.

In the case of B5, the ELISA fold improvement is 7.8 fold.

As for B21, the ELISA fold improvement was determined as 4.2 fold.

The target in another assay is T5, cynomolgous monkey CD25. The experiment in a line: SPR (BIAcore), cynomolgous CD25. This is another data set of the same source.
B6: the Kd is 31 pM.

B8 came in with a Kd of 263 pM.

The next assay concerns the target T4, human CD25 on cells. The experiment in a line: cell-based or functional assay.
Turning to B19, the “Kit225 (fold improvement in inhibition of IL2-induced Kit225 proliferation)” value stood at 2.5 fold.

As to B1, the “Kit225 (fold improvement in inhibition of IL2-induced Kit225 proliferation)” value is 3.6 fold and the “PBMC (fold improvement in inhibition of IL2-induced PHA blast proliferation)” value was determined as 5.8 fold.

Consider B2, for which the “Kit225 (fold improvement in inhibition of IL2-induced Kit225 proliferation)” value was 3 fold and the “PBMC (fold improvement in inhibition of IL2-induced PHA blast proliferation)” value stood at 7.2 fold.

As to B3, the “Kit225 (fold improvement in inhibition of IL2-induced Kit225 proliferation)” value turned out to be 2.8 fold and the “PBMC (fold improvement in inhibition of IL2-induced PHA blast proliferation)” value was 5.8 fold.

For the molecule B4, the “PBMC (fold improvement in inhibition of IL2-induced PHA blast proliferation)” value was 7.7 fold.

For the molecule B5, the “Kit225 (fold improvement in inhibition of IL2-induced Kit225 proliferation)” value stood at 3.1 fold and the “PBMC (fold improvement in inhibition of IL2-induced PHA blast proliferation)” value was found to be 6.4 fold.

The target of the next assay is T1, human CD25. The experiment in a line: SPR (BIAcore). This is another data set of the same source.
Molecule B22 yielded a Kd of 155 pM.

With B23, the Kd came to 138 pM.

Regarding B24, binding was put at a Kd of 181 pM.

The molecule B25 registered a Kd of 244 pM.

Another assay concerns the target T3, CD25 (recombinant). The experiment in a line: ELISA, relative to wild type; * = similar to WT.
As to B17, the “ELISA (wt = 1)” value was 1.1 fold (wt = 1).

In the case of B18, the “ELISA (wt = 1)” value is 1.32 fold (wt = 1).

In a further assay the target is T1, human CD25. In words: competition ELISA vs biotinylated daclizumab, fold over wild type. This is another data set of the same source.
Take B22: the ELISA fold improvement came to 3.98 fold.

In turn, B23 registered an ELISA fold improvement of 3.47 fold.

B24 gave an ELISA fold improvement of 3.97 fold.

On to B25, for which the ELISA fold improvement was determined as 3.91 fold.
